Results: the supplement of paper PMC9170038

Tested on: MS2 coat protein
Test: apparent KD of MS2 coat protein; designed switch direction (-1 OFF switch, 1 ON switch): -1; higher = weaker reporter binding
Summary of the method: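 Stalled E. coli RNA polymerase transcribed designed RNA switches on Illumina chips, which were then titrated with SNAP-549-labelled MS2 coat protein, doubling from 0.7 or 1.5 nM to 3 µM. Steps lasted from 0.8–1.5 h at the lowest concentration to 10–20 min at the highest. The apparent KD is each design's median over clusters of curve-fitted normalised fluorescence.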

[1] = Eterna round: R95, input ligand: FMN 200 uM
[2] = Eterna round: R95, input ligand: microRNA oligo, concentration not stated
[3] = Eterna round: R95, input ligand: none
[4] = input ligand: microRNA oligo, concentration not stated

Sequence | apparent KD of MS2 coat protein [1] | apparent KD of MS2 coat protein [2] | apparent KD of MS2 coat protein [3] | apparent KD of MS2 coat protein (input ligand: FMN 200 uM) | apparent KD of MS2 coat protein [4] | apparent KD of MS2 coat protein (input ligand: none)
AAGAACAGAGGAUAUCGCGGGCAGCACAUGAGGAUCACCCAUGUGAUGCUCCGCGGGCCGCGAGAAGGCUGAAAUG [Dizabe] (puzzle: Exclusion 5) | 14.2 nM | 9.5 nM | 12.9 nM |  |  | 
AAGAAGAAGUAAGGAUAUGAAGAUCUGGUGGUGACAUGAGGAUCACCCAUGUGAAAACGAUAAGAUCAGAAGGUAUAAGAAGAA [AK ExNG2-3.2] (Eterna round: R96, puzzle: Exclusion NG 2) |  |  |  | 86.8 nM | 48.4 nM | 85.8 nM
AAGAAGCGAGGAUAUACAGGCGGCGACAUGAGGAUCACCCAUGUGGUGGCCCACGCCGUGGUAGAAGGCGUUAAAG [Ordiceinri] (Eterna round: R97, puzzle: Exclusion 5) |  |  |  | 228 nM |  | 245 nM
AAGACACAUGAGGAUCACCCAUGUGAGGAUAUGCGAUGCUAAGCGUAAGCUUAGUAUCGCAGAAGGCACAAAGG [Salishxclusion 4 - Jieux - Exclusion 1] (Eterna round: R97, puzzle: Exclusion 1) |  |  |  | 76.9 nM |  | 64 nM
AAGACACAUGAGGAUCACCCAUGUGAGGAUAUUCGAUGCUGAGCGUAAGCUUAGUAUCGGAGAAGGCACAAAGG [Salishxclusion 7 - Jieux - Exclusion 1] (Eterna round: R97, puzzle: Exclusion 1) |  |  |  | 119 nM |  | 39.8 nM
AAGAGCGUAGGAUAUACAUGAGGAUCACCCAUGUGAGGAGGGAAAAGGAGGUGUGGAAGUAGAAGGACGGAGUG [JR_Exclu3_Sub080] (puzzle: Exclusion 3) | 31.8 nM | 30.9 nM | 36.5 nM |  |  | 
AAGAGGAUCAAAGGAUAUGGAGCUGAAACGGCGCUAGAAGGUUGUCCAGUGUAACAUGAGGAUCACCCAUGUAGGGACCUCUAA [AK ExNG1-V2-3] (Eterna round: R96, puzzle: Exclusion NG 1) |  |  |  | 100 nM | 57.5 nM | 42.9 nM
AAGAGGCGGACAGGAUAUGGGAAAUUGUAAAGACCAGAAGGGUCGGCGAAAAUACAUGAGGAUCACCCAUGUGAAUCAUGACCA [AK ExNG1-7] (Eterna round: R96, puzzle: Exclusion NG 1) |  |  |  | 89.1 nM | 31.6 nM | 42.5 nM
AAGAGUGCAGGAUAUACGUGAGAAAGGAGGAUGAGAGAAGGACAUGAGGAUCACCCAUGUAGAAGGGCAGAGAG [JR_Exclu2_Sub060] (puzzle: Exclusion 2) | 29.8 nM | 36.4 nM | 76.8 nM |  |  | 
AAGCAACAUGAGGAUCACCCAUGUUAGGAUAUACGCAUGCAUGCAUGCAUGCAUGCAAGUAGAAGGAACCAUGC [Design #15] (Eterna round: R97, puzzle: Exclusion 1) |  |  |  | 32 nM |  | 49 nM
AAGCUGUCAGGAUAUCGUUAAUUUAGUUGUUUGUAUUAGUUCGAGAAGGGACAUGAGGAUCACCCAUGUAUGUA [Ex4 #39] (Eterna round: R97, puzzle: Exclusion 4) |  |  |  | 76.3 nM |  | 34.2 nM
AAGCUGUGAGGAUAUACAUGAGGAUCACCCAUGUUAAGGAAGUCGGGAUUAAUUUGGUGUAGAAGGCGCUUAUU [JR_Ex3_Sub019] (Eterna round: R97, puzzle: Exclusion 3) |  |  |  | 46.1 nM |  | 48.6 nM
AAGGGACAUGAGGAUCACCCAUGUCAGGAUAUUAGUGUGAGUCACCUUGUGAAUACACUAAGAAGGGAUAGAAA [Eternabot (Original) Solution 38] (Eterna round: R97, puzzle: Exclusion 1) |  |  |  | 69.8 nM |  | 84.5 nM
AAGGGUACUUUCGGAACGACAUGAGGAUCACCCAUGUAGACUGAGGAUAUCUACUACUAAGGACGGGAGAAGGCAGUGUAAUGU [Ex NG3 #76] (Eterna round: R96, puzzle: Exclusion NG 3) |  |  |  |  | 11.8 nM | 
AAGGGUACUUUCGGAACGACAUGAGGAUCACCCAUGUAUACUGAGGAUAUCCACUACUAAGGACGGGAGAAGGCAGUGUACUGU [Ex NG3 #79] (Eterna round: R96, puzzle: Exclusion NG 3) |  |  |  | 26.1 nM | 12.6 nM | 16.6 nM
AAGUACCGUCACGAUAGUGAUGGUACAACAAGCAGUGAAACAUGAGGAUCACCCAUGUCCUCAAUUGCUCGUCUUAU [Sensor 3 - 74] (puzzle: Sensor v3, turn-off variant 2) | 39.9 nM | 195 nM | 37.5 nM |  |  | 
AAGUACCGUCACGAUAGUGAUGGUACAACAGGCAAAUGUACAUGAGGAUCACCCAUGUCCUCUUUUGCUCGUCUUGU [Sensor 3 - 35] (puzzle: Sensor v3, turn-off variant 2) | 94.2 nM | 34 nM | 114 nM |  |  | 
AAGUACCGUCACGAUAGUGAUGGUACAGCAAGCAAGUGAACAUGAGGAUCACCCAUGUCCUCAAUUGCUCGUCUUAU [Sensor 3 - 72] (puzzle: Sensor v3, turn-off variant 2) | 25 nM | 55.5 nM | 24.1 nM |  |  | 
AAGUAUAGAGGAUAUAGUGAGUACUACAUGAGGAUCACCCAUGUUCUUCAAAGCGUAUUUCUAGAAGGCUGAUGAA [EX-5 Malc#15] (puzzle: Exclusion 5) | 58.4 nM | 38.8 nM | 51.5 nM |  |  | 
AAUAACAAGCAAGAUCCUAACAUGAGGAUCACCCAUGUGCUCGUCUUAUAAAGUACUAUCACGAAAGUGAUAGUACA [Sensor 3, v1 - 45] (puzzle: Sensor v3, turn-off variant 1) | 470 nM | 306 nM | 420 nM |  |  | 
AAUAACAAGCCGAUCCUCGACAUGAGGAUCACCCAUGUGCUCGUCUUGUAAAGUACUAUCACGAAAGUGAUAGUACA (Eterna round: R97, puzzle: Sensor, turn-off variant 1) |  |  |  | 174 nM |  | 419 nM
AAUAACAAGUAGGAUCCUAACAUGAGGAUCACCCAUGUGCUCGUCUUAUAAAGUACUAUCACGAAAGUGAUAGUACA [Sensor 3, v1 - 53] (puzzle: Sensor v3, turn-off variant 1) | 44.4 nM | 64.2 nM | 83.5 nM |  |  | 
AAUAACAGAGGAUAUACUAUUUUAUGUGUUUAUUGUUUUAAACAUGAGGAUCACCCAUGUAGAAGGCUGAAUGA [JMF 59] (puzzle: Exclusion 2) |  | 34.4 nM |  |  |  | 
AAUAACAGAGGAUAUACUAUUUUAUGUGUUUAUUGUUUUAAACAUGAGGAUCACCCAUGUAGAAGGCUGAGUAA [JMF 31] (puzzle: Exclusion 2) |  | 37.4 nM |  |  |  | 
AAUAACAGAGGAUAUACUAUUUUAUGUGUUUGUUAUUUUAAACAUGAGGAUCACCCAUGUAGAAGGCUGAAUAA [JMF 14] (puzzle: Exclusion 2) |  | 19.1 nM |  |  |  | 
AAUAACAGAGGAUAUACUAUUUUAUGUGUUUGUUAUUUUGAACAUGAGGAUCACCCAUGUAGAAGGCUGAUUAA [JMF 49] (Eterna round: R96, puzzle: Exclusion 2) |  |  |  | 45.6 nM | 35.2 nM | 44.1 nM
